Experimental data from patent publication US20210205462A1, “Translocation into Eukaryotic Cells” (The University Court of the University of Aberdeen, priority 2018, published 2021).

Legend:
RTG-2 cells = assay: Translocation mechanism study with uptake pathway inhibitors in RTG-2 cells; assay type: cell-based, rainbow trout; conditions: 80 μM dynasore, 1× Brefeldin A or 100 μM nystatin pre-incubation; 3 μM SpHtp1^24-68-mRFP 1 h at 18° C.
Procedure: (§1) Cell culture maintenance of fish RTG-2 (ATCC CCL-55) was done according to the manufacturer's or publisher's instructions. L-15 medium was supplemented with 10% FBS, 100 units/ml Penicillin and 100 μg/ml Streptomycin. Wells containing cover slips with attached cells of 80% confluent were washed 2× with HBSS before translocation experiments.
For experiments investigating translocation mechanism, cells were pre-incubated with various inhibitors (80 μM of dynasore, 1× Brefeldin A or 100 μM nystatin) for 1 h at 18° C., 2 h for dynasore (FIG. 2). Afterwards, 3 μM SpHtp1^24-68-mRPF were incubated for another 1 h at 18° C. For the time course experiment (FIG. 2) cells were pre-incubated with 10 μM dynasore and the incubation with 3 μM SpHtp1^24-68-mRPF at 18° C. stopped at the times as indicated. In order to investigate the influence of SpHtp1^24-198-His on the vesicle release of SpHtp3^21-211-RFP, 3 μM of each protein was pre-incubated in L-15 for 30 min at RT before added to the cells for the usual incubation of 1 h at 18° C.
(§2) After incubation human as well as fish cells were washed 3× with HBSS and fixed with 4% ice-cold PFA in PBST (PBS+0.1% tween) for 15 min at RT. Residual PFA was removed with 5× washing steps with PBS. Cells were mounted with Vectashield with DAPI. Samples were analysed by a Zeiss LSM710 confocal microscope or an epifluorescence microscope (Zeiss Imager M2 with metal halide light source). For quantification mean intensity or vesicles per cell were counted with ImageJ. A maximum of 5 cells were analysed from the same picture. Bars denote s.e.m of 50 cells counted per sample.

human A549 cells [1] = assay: Inhibitor studies of SpHtp1^24-68-mRFP translocation into A549 cells; assay type: cell-based
Procedure: as §1, with “human A549 cell,” for “fish RTG-2 (ATCC CCL-55)”, “DMEM” for “L-15”, “before the” for “before”
For the inhibitor studies, A549 cells were pre-incubated with different concentrations of SCH-202676 (allosteric inhibitor via disulfhydryl group) as indicated for 1 h at 37° C. and after this incubated for another 1 h at 37° C. with 3 μM SpHtp1^24-68-mRPF.
as §2

β2-adrenergic receptor [2] = molecular target: T1, β2-adrenergic receptor (Homo sapiens, UniProt P07550)
[3] = tested on: human cells (such as HEK cells or the human epithelial lung cell line A549); assay: Translocation into human cells; assay type: cell-based
fish cells = assay: Translocation into fish cells; assay type: cell-based
human A549 cells [4] = assay: Translocation of SpHtp1^24-68-mRFP into human A549 cells; assay type: cell-based; conditions: see FIG. 2A, 2C
Procedure: as §1, with “human A549 cell,” for “fish RTG-2 (ATCC CCL-55)”, “DMEM” for “L-15”, “before the” for “before”
For translocation experiments using SpHtp1-coupled microparticles (FIG. 1), 300 μg carbon beads were pre-incubated with 3 μM SpHtp1^24-68-mRPF in 300 μl DMEM without Fetal Calf Serum for 1 h at 37° C. on a rotator to couple the SpHtp1 translocation sequence to the particles. […] Following coupling, the supplemented medium was applied to the cells for 1 h at 37° C. For translocation experiments using SpHtp1^24-68-mRPF (FIG. 2) cells were incubated with 3 μm SpHtp1^24-68-mRPF for 1 h at 37° C.
as §2

β2-adrenergic receptor [5] = molecular target: T1, β2-adrenergic receptor; assay: Co-immunoprecipitation with anti-β2 adrenoceptor antibody; assay type: binding; set-up: confluent A549 cells from a 75 cm^2 flask where detached and resuspended in 500 μl PBS; The cells were lysed by sonication; endogenous in cells; host or cells: A549 (human lung epithelial cell line), sonicated lysate supernatant; conditions: A549 lysate, 10 μM SpHtp1^24-68-RFP; FIG. 3C
Procedure: For co-immunoprecipitation (FIG. 3) confluent A549 cells from a 75 cm^2 flask where detached and resuspended in 500 μl PBS. The cells were lysed by sonication (3×30 sec, 30% intensity, 1 min break on ice) and cell debris removed by centrifugation (16,000×g, 25 min, 4° C.). The supernatant was supplemented with 10 μM SpHtp1^24-68-RFP and 2.5 μg of an anti-82 adrenoceptor and incubated overnight on rotator at 4° C. The next day 200 μl PBS-equilibrated protein G/A beads were added for 2.5 h on rotator at 4° C. After, beads were washed 5 times with 1 ml PBS each. The elution was done with SDS sample buffer and boiling at 95° C. for 10 min.
For the immunoblot, samples were transferred to a nitrocellulose membrane and blocked with 5% milk powder in PBST (PBS+0.1% tween) for 1 h at RT. Incubation of the first antibody (anti-(32 adrenoceptor, 1:200) was done overnight on rotator at 4° C. Excess of antibody was removed by 3 washing steps with PBST, 5 min each. The secondary antibody (anti-rabbit HRP-coupled, 1:1000) was incubated for 1 h at RT in PBST with 5% milk powder. The membrane was washed 4 times (2×PBST and 2×PBS) before the bands were visualised with an ECL substrate and a developer.

cells = assay: Cytotoxic effects, cell morphology and viability after extended incubation; assay type: cell-based; conditions: extended incubation periods of up to 24 hours
SpHtp3 = assay: Protein cross linking of SpHtp1 and SpHtp3; assay type: binding, Saprolegnia parasitica; conditions: PFA cross link; FIG. 5E
Procedure: In order to detect a direct interaction, 10 μg of SpHtp1 and 10 μg of SpHtp3 or each protein alone were pre-incubated in PBS (total: 15 μl) for 15 min at RT. For cross linking 15 μl ice-cold 4% PFA/PBS (final concentration: 2%) was added and incubated for 10 min at RT. The reaction was stopped with 7 μl Laemmli loading dye and subsequent heating to 65° C. for 10 min. Complex formation was investigated by SDS-PAGE and confirmed by LC-MS/MS.

C[C@H]1CCC/C=C/[C@@H]2C[C@H](O)C[C@H]2[C@H](O)/C=C/C(=O)O1 [Brefeldin A]
effect on SpHtp1^24-68-mRFP translocation (RTG-2 cells): no effect

CN=c1nc(-c2ccccc2)n(-c2ccccc2)s1 [SCH-202676]
binding of SpHtp1^24-68-mRFP to the cells after pre-incubation with inhibitor (human A549 cells [1]; 10 μM SCH-202676, FIG. 3A): not influenced
translocation of SpHtp1^24-68-mRFP into cells after pre-incubation with inhibitor (human A549 cells [1]; 10 μM SCH-202676, FIG. 3A): inhibited
concentration dependence of inhibition of translocation (human A549 cells [1]; different concentrations, 1 h at 37° C., FIG. 3B): concentration-dependent

CNCC(O)c1ccc(O)c(O)c1 (stereo not drawn) [adrenalin]
effect of endogenous receptor ligands on the uptake of SpHtp1 (human A549 cells [1]): do not have an effect

O=C(N/N=C/c1ccc(O)c(O)c1)c1cc2ccccc2cc1O [dynasore]
effect on SpHtp1^24-68-mRFP translocation (RTG-2 cells): accumulation of red fluorescence at the membrane

NC[C@H](O)c1ccc(O)c(O)c1 [noradrenalin]
effect of endogenous receptor ligands on the uptake of SpHtp1 (human A549 cells [1]): do not have an effect

C[C@@H]1[C@H](O)[C@@H](C)/C=C/C=C/CC/C=C/C=C/C=C/C=C/C(O[C@H]2O[C@H](C)[C@@H](O)[C@H](N)[C@@H]2O)CC2O[C@](O)(CC(O)C(O)CCC(O)CC(O)CC(O)CC(=O)O[C@H]1C)CC(O)C2C(=O)O (stereo partly drawn) [nystatin]
effect on SpHtp1^24-68-mRFP translocation (RTG-2 cells): no effect

SpHtp1^24-68-mRFP
uptake into the cell, EC50 (β2-adrenergic receptor [2]): 1230 nM

B1: SpHtp1a: SpHtp1 homolog shown in FIG. 6 (protein)
chain: MRIYHPLTLAALCVVLHESLGAAQHSNNVARLEHYSVAEIEHWEKRHLRNSDSRGHRHHAHHGQVIDKENNNSQEQATTGNSVETNQVPFTQPTKDKTASIKTAVFKLLRENKLKTKNAGNGHAHDDDDDDDSNFSDDDVPTNAPTGAPTGAPTDAPTNAPTDAPTDAPTDAPTDAPTDAPTDAPTDAPTTLPPMPRRRSHRCPDRHSHRCDPRRTHGCPD
modifications: SpHtp1a (1-221)
translocation into human cells [3]: able to translocate into both fish and human cells
translocation into fish cells (fish cells): able to translocate into both fish and human cells

B2: SpHtp1: putative effector protein from the fish pathogenic oomycete Saprolegnia parasitica, full-length 198 amino acids (protein)
chain: MRIHHPLTLAALCVVLHESLGAAQHSNNVARLEHYRIAEIEHWEKRHLRSDSRGHRHHAHHGQVIDKENNNSQEQATTGNSVETNQVPSTEPTKDKTTPMKNALFKLFREKKLKTKNAGNGHAHDDDDDSDFSDDDVPTNAPTDAPTGAPTDAPTDAPTVAPTDAPTDAPTEAPTNAPTGTDAPTDAPTDAQVVPTFD
modifications: SpHtp1 (1-198)
EC50 (human A549 cells [4]; cell line not given, read-out: uptake into the cell, EC50): 1230 nM
time of binding of SpHtp1 to the cell surface (human A549 cells [4]): 5 to 10 min
time to significant uptake into the cell (human A549 cells [4]): 20 to 30 min
entry into human cells ([3]; via the β-adrenoceptor): able to enter human cells
interaction with the β2-adrenergic receptor by co-immunoprecipitation (β2-adrenergic receptor [5]): at least indirect interaction
cytotoxic effects, cell morphology, viability (cells): do not have any immediate cytotoxic effects on cells, and do not alter cell morphology or viability
in vitro complex formation after cross link (SDS-PAGE, LC-MS/MS) (SpHtp3): additional band for a cross-linked SpHtp1-SpHtp3 complex
